Test results taken from patent publication US20230331820A1 (GlaxoSmithKline, published 2023).
Where two headings read alike, the source gives them in different places.

B1: mAb clone 12, 13 (antibody, V domains shown)
VH: QVQLKESGPGLVAPSQSLSITCTVSGFSLTSYGVHWVRQPPGKGLEWLGVIWAGGSTNYNSALMSRLSISKDNSKSQVFLKMNSLQTDDTAMYFCARGGITSLHNYVMDYWGQGTSVTVSS
VL: DIVLTQSPASLAVSLGQRATISCRASESVEYYGTSLMQWYQQKPGQPPKLLIYAASNVESGVPARFSGSGSGTHFSLNIHPVEEDDIAMYFCQQSRKVPSTFGGGTKLEIK
notes: also called mAb 12; mAb12
B2: mAb clone 41 (antibody, V domains shown)
VH: QVQLQQSGAELVRPGTSVKVSCKASGYAFTNYLIEWVKQRPGQGLEWIGVINPGSGGTNYNEKFKGKATLTADKSSSTAYMQLSSLTSDDSAVYFCARSGLRRDYYAMDYWGQGTSVTVSS
VL: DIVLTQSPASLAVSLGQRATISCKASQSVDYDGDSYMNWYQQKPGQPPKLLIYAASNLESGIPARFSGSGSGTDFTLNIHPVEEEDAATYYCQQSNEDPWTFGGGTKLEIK
B3: mAb clone 48 (antibody, V domains shown)
VH: QVTLKESGPGILQPSQTLSLTCSFSGFSLSTSGMGVSWIRQPSGKGLEWLAHIYWDDDKRYNPSLKSRLTISKDTSSNQVFLKITSVDTADTATYYCARRGFYYRYDGGRRYYYAMDYWGQGTSVTVSS
VL: DILLTQSPAILSVSPGERVSFSCRASQSIGTSIHWYQQGTNGSPRLLIKFASESISGIPSRFSGSGSGTDFTLSINSVESEDIADYYCQQSNSWPLTFGAGTKLELK
B4: mAb clone 37 (antibody, V domains shown)
VH: EVQLQQSGPELVKPGASVKISCKASGYTFTDYNMHWVKQSHGKSLEWIGYIYPYNGGTGYNQKFKTKATLTVDNSSSTAYMELRSLTSEDSAVYYCAIPGYYYAMDYWGQGTSVTVSS
VL: DIVLTQSPASLAVSLGQRATISCRASKSVSTSGYSYMHWYQQKPGQPPKLLIYLASNLESGVPARFSGSGSGTDFTLNIHPVEEEDASTYYCHHSRELPRTFGGGTKLEIK

Experiments:
[1] = biological target: gEgI mutant (338): HSV2 gEgI mutant heterodimer comprising gE and gI ectodomains with insertion of a (HSV2, UniProt P89475 21-416; P06764 21-256); assay: ELISA, supernatant
[2] = biological target: T1, gI WT: HSV2 gI wildtype ectodomain (HSV2, UniProt P06764 21-256); assay: ELISA, supernatant
[3] = biological target: T2, gEgI mutant (P317R): HSV2 gEgI mutant heterodimer comprising gE and gI ectodomains with mutation P317R in gE (HSV2, UniProt P89475 21-416; P06764 21-256); assay: SPR single-cycle kinetics, mAb captured on RAM; gEgI mutant batch 1
[4] = biological target: T2, gEgI mutant (P317R): HSV2 gEgI mutant …; assay: SPR single-cycle kinetics, mAb captured on RAM; gEgI mutant batch 2
[5] = biological target: T3, gEgI WT: HSV2 gEgI heterodimer comprising gE and gI wildtype ectodomains (HSV2, UniProt P89475 21-416; P06764 21-256); assay: Biacore SPR, gEgI CHO BMP1181 at 10 µg/ml for 180 s over the mAb
[6] = biological target: T3, gEgI WT: HSV2 gEgI heterodimer …; assay: Biacore SPR, gEgI HEK BMP1063 at 10 µg/ml for 180 s over the mAb
[7] = biological target: T3, gEgI WT: HSV2 gEgI heterodimer …; assay: SPR single-cycle kinetics, mAb captured on RAM, gEgI as analyte, 1:1 model
[8] = biological target: T4, gE WT: HSV2 gE wildtype ectodomain (HSV2, UniProt P89475 21-416); assay: ELISA, supernatant
[9] = biological target: gEgI mutant (R320D): HSV2 gEgI mutant heterodimer comprising gE and gI ectodomains with mutation R320D in gE (HSV2, UniProt P89475 21-416; P06764 21-256); assay: ELISA, supernatant
[10] = biological target: gEgI mutant (P319D): HSV2 gEgI mutant heterodimer comprising gE and gI ectodomains with mutation P319D in gE (HSV2, UniProt P89475 21-416; P06764 21-256); assay: ELISA, supernatant
[11] = biological target: T2, gEgI mutant (P317R): HSV2 gEgI mutant …; assay: ELISA, supernatant
[12] = biological target: T3, gEgI WT: HSV2 gEgI heterodimer …; assay: ELISA, supernatant
[13] = biological target: T1, gI WT: HSV2 gI wildtype ectodomain; assay: ELISA, supernatant; remark: listed apart in the source
[14] = biological target: T4, gE WT: HSV2 gE wildtype ectodomain; assay: ELISA, supernatant; remark: listed apart in the source

| Binder | binding result [1] | binding result [2] | Kd [3] [nM] | koff [3] [s⁻¹] | kon [3] [M⁻¹ s⁻¹] | Kd [4] [nM] | koff [4] [s⁻¹] | kon [4] [M⁻¹ s⁻¹] | RU Ag/250 RU mAbs [5] [RU Ag/250 RU mAbs] | RU Ag/250 RU mAbs [6] [RU Ag/250 RU mAbs] | Kd [7] [nM] | koff [7] [s⁻¹] | kon [7] [M⁻¹ s⁻¹] | binding result [8] | binding result [9] | binding result [10] | binding result [11] | binding result [12] | binding result [13] | binding result [14] |
| --- | --- | --- | --- | --- | --- | --- | --- | --- | --- | --- | --- | --- | --- | --- | --- | --- | --- | --- | --- | --- |
| B1 | binds | no binding | 7.68 | 0.00325 | 422000 | 11.5 | 0.00324 | 280000 | 112 | 108 | 6.89 | 0.00197 | 285000 |  |  |  |  |  |  |  |
| B2 | binds | binds |  |  |  |  |  |  |  |  |  |  |  | no binding | binds | binds | binds | binds |  |  |
| B3 | binds |  |  |  |  |  |  |  |  |  |  |  |  |  | binds | binds | binds | binds | no binding | binds |
| B4 | binds | no binding |  |  |  |  |  |  |  |  |  |  |  |  | binds | binds | binds | binds |  | binds |
